Tests used:
Experiment in all cases: SPR
BA.2 = biological target: BA.2
[1] = biological target: SARS-CoV-2 Omicron BA.1 spike (SARS-CoV-2 Omicron BA.1, UniProt P0DTC2 14-1208)
rVSV-Delta spike = rVSV-Delta spike (SARS-CoV-2 Delta, UniProt P0DTC2 14-1252)
rVSV Beta spike = rVSV Beta spike (SARS-CoV-2 Beta, UniProt P0DTC2 14-1252)

B1: Fab 1C3 (Fab, V domains shown)
VH: QVQLLESGGGLVQPGRSLRLSCAASGFTFDDYAMHWVRQPPGKGLEWVSGSSWNSGSVVYADSVKGRFTISRDSAKNSLHLQMNSLRVEDTALYYCAKAVDPTRGSYSPDYGFDIWGQGTMVTVS
VL: not shown
BA.2
  Kd: 0.023 nM

B2: 1C3 antigen-binding fragment (Fab) (Fab, V domains shown)
VH: QVQLLESGGGLVQPGRSLRLSCAASGFTFDDYAMHWVRQPPGKGLEWVSGSSWNSGSVVYADSVKGRFTISRDSAKNSLHLQMNSLRVEDTALYYCAKAVDPTRGSYSPDYGFDIWGQGTMVTVS
VL: not shown
[1]
  Kd: 0.041 nM
rVSV-Delta spike
  Kd: 0.036 nM
rVSV Beta spike
  Kd: 0.039 nM

B3: Fab 2A10 (antibody, V domains shown)
VH: QVQLVESGGGLIQPGGSLRLSCAASEFIVSSNYMSWVRQAPGKGLEWVSLLYSGGTTYYADSVKGRFTISRDNSKNTLFLQMNSLRAEDTAMYYCARDRGPWLHDYWGQGTLVTVS
VL: DIVMTQSPSSLSASVGDRVTITCQASQDINKYCNWYQQKPGKAPKLLIYDASNLETGVPSRFSGSGSGTDFTFTINSLQPEDIATYYCQQYDNLPPTFGGGTKVEIK
[1]
  Kd: 4.42 nM
rVSV-Delta spike
  Kd: 0.132 nM

Reference: patent publication US20250382353A1 (published 2025)
